For experiment [1], the target named is T1, APC8 subunit of the anaphase-promoting complex/cyclosome (human, UniProt Q9UJX2 1-597).
T1 construct: APC8, human, subunit of recombinant APC/C; Stood assembled in the recombinant APC/C; the contacts are told of the copy APC8(B); also called APC8(B); source: recombinant human APC/C, modified MultiBac system, as described previously [51,52]; purified within the APC/C
Nature of the experiment: cryo-EM structure; APC/C^CDH1:EMI1 ternary complex, 2.9 Å; complex and grids prepared as described previously [19]; Titan Krios, Falcon 3; APC/C subunits co-expressed, complex purified. The conditions noted are these: both partners purified.

Experiment [2] deals with T2, APC1 subunit of the anaphase-promoting complex/cyclosome (human, UniProt Q9H1A4 1-1944).
T2 construct: APC1, human, subunit of recombinant APC/C; Stood assembled in the unphosphorylated recombinant APC/C; source: recombinant human APC/C, modified MultiBac system, as described previously [51,52]; purified within the APC/C
The experiment is described as above. As to conditions: both partners purified.

B1: CDH1 (APC/C coactivator subunit) (natural protein, human, UniProt Q9UM11-2 1-493, looked up)
chain: MDQDYERRLLRQIVIQNENTMPRVTEMRRTLTPASSPVSSPSKHGDRFIPSRAGANWSVNFHRINENEKSPSQNRKAKDATSDNGKDGLAYSALLKNELLGAGIEKVQDPQTEDRRLQPSTPEKKGLFTYSLSTKRSSPDDGNDVSPYSLSPVSNKSQKLLRSPRKPTRKISKIPFKVLDAPELQDDFYLNLVDWSSLNVLSVGLGTCVYLWSACTSQVTRLCDLSVEGDSVTSVGWSERGNLVAVGTHKGFVQIWDAAAGKKLSMLEGHTARVGALAWNAEQLSSGSRDRMILQRDIRTPPLQSERRLQGHRQEVCGLKWSTDHQLLASGGNDNKLLVWNHSSLSPVQQYTEHLAAVKAIAWSPHQHGLLASGGGTADRCIRFWNTLTGQPLQCIDTGSQVCNLAWSKHANELVSTHGYSQNQILVWKYPSLTQVAKLTGHSYRVLYLAMSPDGEAIVTGAGDETLRFWNVFSKTRSTKESVSVLNLFTRIR
notes: CDH1, human; the last residue printed for CDH1 is 493 (chimera: residues 24 to 493 of CDH1), so the isoform of 493 residues is meant; the tag is told in the methods for CDH1 in general; source: expressed and purified as described previously [19,23,27]
With B1, the binding result in experiment [1] and in experiment [2] was “binds” each time.

(Values after paper doi:10.1101/2023.08.31.555674, “New structural features of the APC/C from high-resolution cryo-EM structures of apo-APC/C and APC/C^CDH1:EMI1 complexes” (bioRxiv, 2023).)
